Measurements: patent US20140045930A1, “ASSAY FOR ARGINYL HYDROXYLASE ACTIVITY” (priority 2011, published 2014)

What was measured:
Format in all cases: biochemical
[1] = biological target: T1, YcfD (Escherichia coli, UniProt P27431)
T1 construct: hexa-His (N); made in house; host or cells: E. coli BL21 (DE3), pET28a
T1 sequence (P27431 1-373): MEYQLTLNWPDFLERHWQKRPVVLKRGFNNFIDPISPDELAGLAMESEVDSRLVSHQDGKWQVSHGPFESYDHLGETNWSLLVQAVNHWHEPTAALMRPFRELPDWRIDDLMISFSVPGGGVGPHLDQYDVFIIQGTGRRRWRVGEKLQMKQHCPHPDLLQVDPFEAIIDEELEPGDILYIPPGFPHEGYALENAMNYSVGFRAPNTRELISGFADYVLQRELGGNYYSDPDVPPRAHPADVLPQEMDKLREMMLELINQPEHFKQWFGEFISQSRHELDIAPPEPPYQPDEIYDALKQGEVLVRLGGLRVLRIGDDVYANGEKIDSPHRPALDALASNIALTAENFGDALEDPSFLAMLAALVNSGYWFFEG

[2] = biological target: T1, YcfD; assay: NMR analyses of YcfD-catalysed hydroxylation; settings: for hydroxylation by YcfD observed by 1H NMR: 1H NMR analyses (data not shown)
From the text: NMR-analyses used a Bruker AVIII 700 system equipped with an inverse TCI cryoprobe optimised for ^1H observation and running TOPSPIN 2 software. Chemical shifts are reported in ppm relative to D2O (δH 4.72); the deuterium signal was used as an internal lock signal and the HDO signal was reduced by presaturation where necessary.
(§1) Using a mass spectrometric (MS) based assay, we then screened YcfD with 21 known peptide fragments of substrates for three human 2OG dependent hydroxylases (PHD2, FIH, JMJD6), that encompasses known hydroxylation sites, including the HIF-1α N- and C-terminal oxygen dependent degradation domain (prolyl-hydroxylation), the HIF-1α C-terminal transcriptional activation domain (asparaginyl hydroxylation), ankyrin repeat domain peptides (asparaginyl hydroxylation), splicing regulatory protein fragments (lysyl5-hydroxylation), and collagen proyl-hyroxylase peptides. […] We then screened other available peptides including a set originally prepared for candidate hydroxylases from Pseudomonas spp., that are potential homologues of the human HIF prolyl-hydroxylases. […] MS-fragmentation analyses, unexpectedly, implied that the predicted hydroxylation occurred at the arginine-residue (Arg-12) at the -3position relative to the C-terminus of the substrate peptide (data not shown). This proposal was supported by ‘alanine scanning’ analyses hydroxylation was assessed for peptides in which substitution of alanine at every position in turn of RLLPAVSEATIRRL. […] We then employed NMR to investigate the regiochemistry of arginine-hydroxylation, employing an octameric peptide (AVSEATIR) containing a single arginine residue to simplify the analyses. This octameric peptide is set out in SEQ ID NO: 12. […] This contrasts with nitric oxide synthase which catalyses hydroxylation of L-arginine to give citrulline and nitric oxide via an Nω-hydroxyarginine intermediate.

[3] = biological target: T1, YcfD; assay: Hydroxylation assay by MALDI-TOF MS (peptide substrates, +16 Da mass shift); settings: for % hydroxylation (+16 Da): peptide substrate incubated with YcfD, +16Da mass shift on products
Experimental: Assay mixtures (final volume 100 μL in 50 mM Tris-HCl, pH 7.5) contained: enzyme (10 μM), substrate (100 μM), 2OG (160 μM), Fe(II) (200 μM) and ascorbate (2 mM). The reaction mixture was incubated at 37° C. for 30 minutes. The reaction mixture was then placed on ice, 10 μl of 1% formic acid was added to quench the reaction, and the mixture was centrifuged to separate any insoluble material that precipitated during quenching. The resultant soluble mixture (1 μl) and α-cyano-4-hydroxycinnamic acid (CHCA) matrix solution (1 μl) (LaserBio Labs) were double spotted onto a 96 well MALDI sample plate, and when dry analysed using MALDI-TOF MS on a Waters Micromass™ MALDI micro MX™ mass spectrometer in negative ion reflectron mode.
as §1
Based on the identified peptide substrates for YcfD, we searched the E. coli genome for potential substrates and made a set of peptides. Screening for YcfD activity identified a number of further potential substrate sequences as observed by a +16Da mass shift on products. Examples of the peptide substrates are set out in the Table below.

## O=C(O)c1c[nH]c2c(ccc3cccnc32)c1=O [FG0041]
[1]
  inhibition of YcfD argininyl hydroxylase activity: inhibitory

## O=C(O)CNC(=O)c1nc(Cl)c2ccccc2c1O [FG2216]
[1]
  inhibition of YcfD argininyl hydroxylase activity: inhibitory

## N=C(N)NCCC[C@H](N)C(=O)O [L-arginine]
[2]
  hydroxylation by YcfD observed by 1H NMR: No hydroxylation

## O=C(O)CNC(=O)C(=O)O [N-oxalylglycine]
[1]
  inhibition of YcfD argininyl hydroxylase activity: inhibitory

## CC(=O)N[C@@H](CCCNC(=N)N)C(=O)O [N-α-acetyl-L-arginine]
[2]
  hydroxylation by YcfD observed by 1H NMR: No hydroxylation

## O=C(O)/C=C/C(=O)O [fumarate]
[1]
  inhibition of YcfD argininyl hydroxylase activity: inhibitory

## O=c1c(-c2ccc(O)cc2)coc2cc(O)cc(O)c12 [genistein]
[1]
  inhibition of YcfD argininyl hydroxylase activity: inhibitory

## O=C(O)c1ccnc(C(=O)O)c1 [pyridine-2,4-dicarboxylic acid]
[1]
  inhibition of YcfD argininyl hydroxylase activity: inhibitory

## O=C(O)c1ccc(C(=O)O)nc1 [pyridine-2,5-dicarboxylic acid]
[1]
  enhancement of YcfD activity: Enhancers of YcfD activity

## O=C(O)c1cccc(C(=O)O)n1 [pyridine-2,6-dicarboxylic acid]
[1]
  enhancement of YcfD activity: Enhancers of YcfD activity

## O=C(O)CCC(=O)O [succinate]
[1]
  inhibition of YcfD argininyl hydroxylase activity: inhibitory

## AQYPQEVITTVRG [synthetic peptide, protein origin PhoP]
[3]
  % hydroxylation (+16 Da): 60%

## ATVAKCVEALKERFQASLRD [synthetic peptide, protein origin PheT]
[3]
  % hydroxylation (+16 Da): 40%

## AVSEATIR [octameric peptide containing a single arginine residue]
[2]; 2D-NMR after incubation with YcfD and HPLC purification
  position of hydroxylation: at C-3 of the hydroxylated arginine-residue

## ELNREQKWQMMLSKSMRR [synthetic peptide, protein origin CaiF]
[3]
  % hydroxylation (+16 Da): 40%

## KHVQALDLSMRFR [synthetic peptide, protein origin Nicotinate-nucleotide diphosphorylase]
[3]
  % hydroxylation (+16 Da): 30%

## KLLRLFFPLSLRV [synthetic peptide, protein origin PhoQ]
[3]
  % hydroxylation (+16 Da): 60%

## KTPLAVLQSTLRS [synthetic peptide, protein origin PhoQ]
[3]
  % hydroxylation (+16 Da): 95%

## KTPLAVLQSTLRSLR [synthetic peptide, protein origin PhoQ]
[3]
  % hydroxylation (+16 Da): 40%

## KWQMMLSKSMRR [synthetic peptide, protein origin CaiF]
[3]
  % hydroxylation (+16 Da): 30%

## LAVLQSTLRSLRS [synthetic peptide, protein origin PhoQ]
[3]
  % hydroxylation (+16 Da): 60%

## LLRLFFPLSLRV [synthetic peptide, protein origin PhoQ]
[3]
  % hydroxylation (+16 Da): 50%

## LTELNREQKWQMMLSKSMRR [synthetic peptide, protein origin CaiF]
[3]
  % hydroxylation (+16 Da): 40%

## LTHSLKTPLAVLQSTLRS [synthetic peptide, protein origin PhoQ]
[3]
  % hydroxylation (+16 Da): 90%

## NTHRGMGYSLRGL [synthetic peptide, protein origin CreB]
[3]
  % hydroxylation (+16 Da): 30%

## RLLPAVSEATIRRL [14-residue synthetic peptide originally prepared for candidate hydroxylases from Pseudomonas spp; YcfD substrate]
[3]; MS based assay, Fe(II) and 2OG dependent
  hydroxylation by YcfD (+16Da mass shift): gave a +16Da mass shift

## VAKCVEALKERFQASLRD [synthetic peptide, protein origin PheT]
[3]
  % hydroxylation (+16 Da): 50%

## VEALKERFQASLRD [synthetic peptide, protein origin Phenylalanyl-tRNA synthetase]
[3]
  % hydroxylation (+16 Da): 40%
